The record followed here is publication PMC8281026, “Peptide Based Inhibitors of Protein Binding to the Mitogen-Activated Protein Kinase Docking Groove” (Frontiers in Molecular Biosciences, 2021).

The experiment has as its target ERK2, P28482. Put plainly: fluorescence polarisation; competitive: complex of the MAPK with 50 nM Cf-RHDF at 60-80% complex formation titrated with increasing unlabeled peptide; 20 mM Tris pH 8.0, 100 mM NaCl, 0.05% Brij35, 2 mM TCEP; 384-well black plates; triplicates; constants are called Kd in Table 1 and Ki in the ….

Sequence of ERK2, P28482 (P28482 whole entry): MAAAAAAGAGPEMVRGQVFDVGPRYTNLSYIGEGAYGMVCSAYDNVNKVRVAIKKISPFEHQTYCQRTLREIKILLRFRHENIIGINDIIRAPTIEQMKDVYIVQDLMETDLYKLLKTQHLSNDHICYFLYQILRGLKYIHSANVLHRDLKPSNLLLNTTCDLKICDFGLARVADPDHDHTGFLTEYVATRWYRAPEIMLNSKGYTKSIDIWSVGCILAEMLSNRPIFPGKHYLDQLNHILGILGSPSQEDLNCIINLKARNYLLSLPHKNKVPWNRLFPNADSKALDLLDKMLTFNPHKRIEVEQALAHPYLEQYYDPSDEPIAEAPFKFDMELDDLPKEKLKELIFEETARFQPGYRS

B1: octaarginine conjugate of the native RHDF1 sequence (peptide 2) (peptide)
chain 1: SLQRKKPPWLKLDIPSC
chain 2: RRRRRRRR
modifications: not checked
B1 showed a dissociation constant (Kd) of 600 nM.
